Assay results: patent publication US20150023989A1 (Seagen, published 2015)

Molecular target: T1, hFGFR2α-Fc (IIIb) (Human, UniProt P21802-3 22-378, biotinylated with biotin-LC-NHS (2-fold molar excess), positions not stated)
T1 construct: Bought protein; also called RnD Systems 663-FR; not shown: Fc part of the bought fusion protein
Assay: ELISA; biotinylated Fc fusion protein on streptavidin plate, Fab at 1 µg/ml; signal against TRAIL-Fc wells (+++: ratio >5)

T1 sequence (P21802 other isoform, or with tags, fused parts or gaps limits assumed): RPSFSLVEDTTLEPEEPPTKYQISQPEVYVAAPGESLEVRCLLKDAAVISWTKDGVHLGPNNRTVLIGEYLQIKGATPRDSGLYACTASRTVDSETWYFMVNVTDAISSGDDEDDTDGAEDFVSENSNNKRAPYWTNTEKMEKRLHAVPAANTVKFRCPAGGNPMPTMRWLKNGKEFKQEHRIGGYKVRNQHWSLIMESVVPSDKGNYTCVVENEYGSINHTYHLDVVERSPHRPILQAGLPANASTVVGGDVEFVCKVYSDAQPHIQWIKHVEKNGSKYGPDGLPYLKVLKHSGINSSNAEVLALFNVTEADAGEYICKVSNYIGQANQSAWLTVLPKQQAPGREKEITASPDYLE

B1: parental Fab fragment M048-D01 (Fab, V domains shown)
VH: EVQLLESGGGLVQPGGSLRLSCAASGFTFSSYAMSWVRQAPGKGLEWVSAISGSGTSTYYADSVKGRFTISRDNSKNTLYLQMNSLRAEDTAVYYCARVRYNWNHGDWFDPWGQGTLVTVSS
VL: QSVLTQPPSASGTPGQRVTISCSGSSSNIGNNYVSWYQQLPGTAPKLLIYENYNRPAGVPDRFSGSKSGTSASLAISGLRSEDEADYYCSSWDDSLNYWVFGGGTKLTVL
notes: Fab from the n-CoDeR phage display library, expressed in E. coli and purified through its his-tag; constant domains and tag are not; also called M048-D01 Fab; sFab
  binding result: binds
